# The Human Domainome abundance scans (Beltran et al. 2025)
# ± gives the uncertainty stated by the source.
# B1: Intersectin-2, residues 1129 to 1183; numbered along this chain, Q9NZM3 (parent)
# chain: VCQVIAMYDYAANNEDELSFSKGQLINVMNKDDPDWWQGEINGVTGLFPSNYVKM
# Variants of: B1
# Experiment: abundance fitness (aPCA) (normalised: wild type 0, dead -1); higher = more abundant; growth selection in yeast, the domain comes from the species named
# Details: Homo sapiens
row,Variant,abundance fitness
1,VCQVIAMYDYAANNEDELSFSKGQLINVMNKDDPDWWWGEINGVTGLFPSNYVKM [Q38W],-0.276 ± 0.068
2,VCQVIAMYDYAANNEDELSFSKGQLINVMEKDDPDWWQGEINGVTGLFPSNYVKM [N30E],-0.046 ± 0.04
3,VCQVIAMYDYAANNEDELSFSKGQLINVMSKDDPDWWQGEINGVTGLFPSNYVKM [N30S],-0.028 ± 0.029
4,VCQVIAMYDYAANNEDELSFSKGQLINVMNKDDSDWWQGEINGVTGLFPSNYVKM [P34S],-0.013 ± 0.042
5,VCQVIAMYDYAANNEFELSFSKGQLINVMNKDDPDWWQGEINGVTGLFPSNYVKM [D16F],-0.04 ± 0.033
6,VCQVIAMYDYAANNEDELSFSKGQLINVMNKDDPDWWQGEINGVTGLFPCNYVKM [S50C],-0.139 ± 0.055
7,VCQVIAMYDYAANNEDELSFSKGQLINVMNKDDPDWWQGEKNGVTGLFPSNYVKM [I41K],-0.094 ± 0.052
8,VCQVIAMYDYAANNEDELSFSKGQLINVMNKDDPDWWQGEINGVTWLFPSNYVKM [G46W],-0.92 ± 0.083
9,VCQVIAMYDYAANNEDELSFSKGQLINVMNKDDPDWWQGEINGFTGLFPSNYVKM [V44F],-0.098 ± 0.045
10,VCQVIAMYDYAANNEDELSFSKGQLINVMNKDDPDWWQGEINGVTGLFQSNYVKM [P49Q],-0.129 ± 0.049
11,VCQVIAMYDYAANNEDELSFSKGQLINCMNKDDPDWWQGEINGVTGLFPSNYVKM [V28C],-0.077 ± 0.063
12,VCQVIAMYDYAANNEDELSFSKGQLINVMNKDDPDWWQGEIPGVTGLFPSNYVKM [N42P],-0.473 ± 0.038
13,VCQVIAMYDYAANNEDELSFSKGQLINVMNKDDPDWWQGEILGVTGLFPSNYVKM [N42L],-0.068 ± 0.037
14,VCQVIAMYDYAANNEDELSFSKGQLINVMNKDDPDRWQGEINGVTGLFPSNYVKM [W36R],-0.019 ± 0.031
15,VCQVIAMYDYAANNEDELSFSKGQLINVMNKDDPDLWQGEINGVTGLFPSNYVKM [W36L],-0.029 ± 0.03
16,VCQVIAMYDYAANNEDELSFSKGQLINVMNKDDPDWWQGEINIVTGLFPSNYVKM [G43I],-0.865 ± 0.1
17,VCQVIAMYDYAANNEDELSFSKGQLINVMNKDDPDWWQGEINKVTGLFPSNYVKM [G43K],0.029 ± 0.04
18,VCQVIAMYDYAANNEDELSFSKGQLINVMNKDDPDWWQGEINGVTGLFPSNYVCM [K54C],-0.12 ± 0.053
19,VCQVIAMYVYAANNEDELSFSKGQLINVMNKDDPDWWQGEINGVTGLFPSNYVKM [D9V],-0.38 ± 0.04
20,VCQVIAMYDYAANNEDELSFSKGQLINVMNKDDPDWWQGEINGVTGLFPSNEVKM [Y52E],-0.192 ± 0.051
21,VCQVIAMYDYAANNEDELSFSKGQLINVMNKDRPDWWQGEINGVTGLFPSNYVKM [D33R],-0.015 ± 0.028
22,VCQVIAMYDYAANNEDELSFSKGQLINVMNKDTPDWWQGEINGVTGLFPSNYVKM [D33T],-0.023 ± 0.034
23,VCQVIAMYDYAANNEDELSFSKGQLINVMNKDDPDWWQGEINGVTGLMPSNYVKM [F48M],-0.092 ± 0.052
24,VCQVIAMYDYAANNEDELSFSKGQLINVMNKDDPDWWQGEINGVTGLFPSTYVKM [N51T],-0.034 ± 0.042

row,Variant,abundance fitness
1,VCQVIAMYDYAANNEDELSFSKGQLLNVMNKDDPDWWQGEINGVTGLFPSNYVKM [I26L],-0.065 ± 0.037
2,VCQVWAMYDYAANNEDELSFSKGQLINVMNKDDPDWWQGEINGVTGLFPSNYVKM [I5W],-0.056 ± 0.037
3,VCQVEAMYDYAANNEDELSFSKGQLINVMNKDDPDWWQGEINGVTGLFPSNYVKM [I5E],-0.062 ± 0.052
4,VCQVIAMYDYAANNEDEGSFSKGQLINVMNKDDPDWWQGEINGVTGLFPSNYVKM [L18G],-0.861 ± 0.056
5,VCQVIAMYDYAANNEDEMSFSKGQLINVMNKDDPDWWQGEINGVTGLFPSNYVKM [L18M],-0.046 ± 0.054
6,VCQVIAMNDYAANNEDELSFSKGQLINVMNKDDPDWWQGEINGVTGLFPSNYVKM [Y8N],0.011 ± 0.047
7,VCQVIAMTDYAANNEDELSFSKGQLINVMNKDDPDWWQGEINGVTGLFPSNYVKM [Y8T],-0.122 ± 0.053
8,VCQVIAMYDYDANNEDELSFSKGQLINVMNKDDPDWWQGEINGVTGLFPSNYVKM [A11D],0.007 ± 0.042
9,VCQVIAMYDYWANNEDELSFSKGQLINVMNKDDPDWWQGEINGVTGLFPSNYVKM [A11W],-0.117 ± 0.049
10,VCQVIAMYDGAANNEDELSFSKGQLINVMNKDDPDWWQGEINGVTGLFPSNYVKM [Y10G],-0.761 ± 0.044
11,VCQSIAMYDYAANNEDELSFSKGQLINVMNKDDPDWWQGEINGVTGLFPSNYVKM [V4S],-0.064 ± 0.029
12,VIQVIAMYDYAANNEDELSFSKGQLINVMNKDDPDWWQGEINGVTGLFPSNYVKM [C2I],-0.116 ± 0.072
13,VCQVIAMYDYAANNHDELSFSKGQLINVMNKDDPDWWQGEINGVTGLFPSNYVKM [E15H],0 ± 0.068
14,VCQVIAMYDYAANNPDELSFSKGQLINVMNKDDPDWWQGEINGVTGLFPSNYVKM [E15P],0.011 ± 0.036
15,VCQVIAMYDYAANNGDELSFSKGQLINVMNKDDPDWWQGEINGVTGLFPSNYVKM [E15G],-0.006 ± 0.034
16,VCQVIAMYDYAANNEDELSFSKGQLINVMNKDDPDWWQNEINGVTGLFPSNYVKM [G39N],-0.831 ± 0.18
17,VCYVIAMYDYAANNEDELSFSKGQLINVMNKDDPDWWQGEINGVTGLFPSNYVKM [Q3Y],-0.029 ± 0.064
18,VCQVIAMYDYAANNEDELSFSKGNLINVMNKDDPDWWQGEINGVTGLFPSNYVKM [Q24N],-0.05 ± 0.04
19,VCQVIAMYDYAANNEDELSFSKGMLINVMNKDDPDWWQGEINGVTGLFPSNYVKM [Q24M],-0.051 ± 0.033
20,RCQVIAMYDYAANNEDELSFSKGQLINVMNKDDPDWWQGEINGVTGLFPSNYVKM [V1R],-0.228 ± 0.09
21,MCQVIAMYDYAANNEDELSFSKGQLINVMNKDDPDWWQGEINGVTGLFPSNYVKM [V1M],-0.178 ± 0.094
22,VCQVIAMYDYAANNEDELSFSKGQLIFVMNKDDPDWWQGEINGVTGLFPSNYVKM [N27F],-0.112 ± 0.045
23,VCQVIAMYDYAANNEDELSFSKGQLIMVMNKDDPDWWQGEINGVTGLFPSNYVKM [N27M],-0.02 ± 0.05
24,VCQVIAMYDYAANNEDELSFSKGQLIPVMNKDDPDWWQGEINGVTGLFPSNYVKM [N27P],-0.351 ± 0.06
